{"source": "paper PMC6548343", "about": "(Journal of Molecular Cell Biology, 2018)", "proteins": {"B1": {"name": "Rvb1/Rvb2 (complex, S. cerevisiae)", "chain 1": "MVAISEVKENPGVNSSNSGAVTRTAAHTHIKGLGLDESGVAKRVEGGFVGQIEAREACGVIVDLIKAKKMSGRAILLAGGPSTGKTALALAISQELGPKVPFCPLVGSELYSVEVKKTETLMENFRRAIGLRIKETKEVYEGEVTELTPEDAENPLGGYGKTISHVIVGLKSAKGTKTLRLDPTIYESIQREKVSIGDVIYIEANTGAVKRVGRSDAYATEFDLETEEYVPLPKGEVHKKKEIVQDVTLHDLDVANARPQGGQDVISMMGQLLKPKKTEITEKLRQEVNKVVAKYIDQGVAELIPGVLFIDEVNMLDIEIFTYLNKALESNIAPVVVLASNRGMTTVRGTEDVISPHGVPPDLIDRLLIVRTLPYDKDEIRTIIERRATVERLQVESSALDLLATMGTETSLRYALQLLAPCGILAQTSNRKEIVVNDVNEAKLLFLDAKRSTKILETSANYL", "chain 2": "MSIQTSDPNETSDLKSLSLIAAHSHITGLGLDENLQPRPTSEGMVGQLQARRAAGVILKMVQNGTIAGRAVLVAGPPSTGKTALAMGVSQSLGKDVPFTAIAGSEIFSLELSKTEALTQAFRKSIGIKIKEETELIEGEVVEIQIDRSITGGHKQGKLTIKTTDMETIYELGNKMIDGLTKEKVLAGDVISIDKASGKITKLGRSFARSRDYDAMGADTRFVQCPEGELQKRKTVVHTVSLHEIDVINSRTQGFLALFTGDTGEIRSEVRDQINTKVAEWKEEGKAEIVPGVLFIDEVHMLDIECFSFINRALEDEFAPIVMMATNRGVSKTRGTNYKSPHGLPLDLLDRSIIITTKSYNEQEIKTILSIRAQEEEVELSSDALDLLTKTGVETSLRYSSNLISVAQQIAMKRKNNTVEVEDVKRAYLLFLDSARSVKYVQENESQYIDDQGNVQISIAKSADPDAMDTTE", "notes": "Rvb1, AAA+ ATPase subunit, S. cerevisiae; Rvb2, AAA+ ATPase subunit, S. cerevisiae; Seen as a hexameric ring in INO80 and as free hexamers and dodecamers; The fitted models PDB 2XSZ and 5OAF are of the human proteins; also called Rvb1/Rvb2 hexameric ring; Rvb1-Rvb2 ring; source: endogenous, S. cerevisiae, co-purified with tagged Ino80 (FLAG resin, Mono Q)"}}, "biological_target": "the molecule itself", "assay": "EM classification and 3D reconstruction; INO80 sub-complexes and separated Rvb1/Rvb2 rings in the Mono Q fraction of the Ino80-2×FLAG purification", "note": "Values joined by “and” are separate entries in the source; they are usually repeats but may differ in a detail not shown here. Equal values may be shown once."}
{"protein": "B1", "values": [{"measurement": "stoichiometry N", "result": "12 and 6"}]}
